B1: Retinoic acid receptor RXR-alpha, residues 132 to 208; numbered along this chain, P19793 (parent)
chain: KHICAICGDRSSGKHYGVYSCEGCKGFFKRTVRKDLTYTCRDNKDCLIDKRQRNRCQYCRYQKCLAMGMKREAVQEE

± gives the uncertainty stated by the source.

For 35 variants, abundance fitness results are on record in the Human Domainome abundance scans (Beltran et al. 2025).

The variants in the data set derive from B1. The data set is described as follows: abundance fitness (aPCA) (normalised: wild type 0, dead -1); higher = more abundant; growth selection in yeast, the domain comes from the species named. As to conditions: Homo sapiens.
Turning to EHICAICGDRSSGKHYGVYSCEGCKGFFKRTVRKDLTYTCRDNKDCLIDKRQRNRCQYCRYQKCLAMGMKREAVQEE, the abundance fitness is -0.117 ± 0.058.
For the variant MHICAICGDRSSGKHYGVYSCEGCKGFFKRTVRKDLTYTCRDNKDCLIDKRQRNRCQYCRYQKCLAMGMKREAVQEE, the abundance fitness is -0.067 ± 0.05.
Consider WHICAICGDRSSGKHYGVYSCEGCKGFFKRTVRKDLTYTCRDNKDCLIDKRQRNRCQYCRYQKCLAMGMKREAVQEE, for which the abundance fitness is -0.341 ± 0.076.
The figure for LHICAICGDRSSGKHYGVYSCEGCKGFFKRTVRKDLTYTCRDNKDCLIDKRQRNRCQYCRYQKCLAMGMKREAVQEE is -0.333 ± 0.05; for VHICAICGDRSSGKHYGVYSCEGCKGFFKRTVRKDLTYTCRDNKDCLIDKRQRNRCQYCRYQKCLAMGMKREAVQEE it is -0.206 ± 0.042.
The figure for RHICAICGDRSSGKHYGVYSCEGCKGFFKRTVRKDLTYTCRDNKDCLIDKRQRNRCQYCRYQKCLAMGMKREAVQEE is -0.286 ± 0.055.
The figure for YHICAICGDRSSGKHYGVYSCEGCKGFFKRTVRKDLTYTCRDNKDCLIDKRQRNRCQYCRYQKCLAMGMKREAVQEE is -0.119 ± 0.045.
In the case of NHICAICGDRSSGKHYGVYSCEGCKGFFKRTVRKDLTYTCRDNKDCLIDKRQRNRCQYCRYQKCLAMGMKREAVQEE, the abundance fitness is -0.024 ± 0.045.
The figure for FHICAICGDRSSGKHYGVYSCEGCKGFFKRTVRKDLTYTCRDNKDCLIDKRQRNRCQYCRYQKCLAMGMKREAVQEE is -0.217 ± 0.065.
The figure for THICAICGDRSSGKHYGVYSCEGCKGFFKRTVRKDLTYTCRDNKDCLIDKRQRNRCQYCRYQKCLAMGMKREAVQEE is -0.435 ± 0.051; for SHICAICGDRSSGKHYGVYSCEGCKGFFKRTVRKDLTYTCRDNKDCLIDKRQRNRCQYCRYQKCLAMGMKREAVQEE it is -0.299 ± 0.042.
For the variant HHICAICGDRSSGKHYGVYSCEGCKGFFKRTVRKDLTYTCRDNKDCLIDKRQRNRCQYCRYQKCLAMGMKREAVQEE, the abundance fitness was -0.222 ± 0.06.
The figure for KPICAICGDRSSGKHYGVYSCEGCKGFFKRTVRKDLTYTCRDNKDCLIDKRQRNRCQYCRYQKCLAMGMKREAVQEE is -0.453 ± 0.063.
KWICAICGDRSSGKHYGVYSCEGCKGFFKRTVRKDLTYTCRDNKDCLIDKRQRNRCQYCRYQKCLAMGMKREAVQEE: the abundance fitness is -0.109 ± 0.044.
The figure for KDICAICGDRSSGKHYGVYSCEGCKGFFKRTVRKDLTYTCRDNKDCLIDKRQRNRCQYCRYQKCLAMGMKREAVQEE is 0.072 ± 0.061; for KTICAICGDRSSGKHYGVYSCEGCKGFFKRTVRKDLTYTCRDNKDCLIDKRQRNRCQYCRYQKCLAMGMKREAVQEE it is -0.026 ± 0.052.
The figure for KGICAICGDRSSGKHYGVYSCEGCKGFFKRTVRKDLTYTCRDNKDCLIDKRQRNRCQYCRYQKCLAMGMKREAVQEE is -0.005 ± 0.031.
The figure for KMICAICGDRSSGKHYGVYSCEGCKGFFKRTVRKDLTYTCRDNKDCLIDKRQRNRCQYCRYQKCLAMGMKREAVQEE is 0.078 ± 0.054.
With KVICAICGDRSSGKHYGVYSCEGCKGFFKRTVRKDLTYTCRDNKDCLIDKRQRNRCQYCRYQKCLAMGMKREAVQEE, the abundance fitness is -0.142 ± 0.042.
As to KEICAICGDRSSGKHYGVYSCEGCKGFFKRTVRKDLTYTCRDNKDCLIDKRQRNRCQYCRYQKCLAMGMKREAVQEE, the abundance fitness is 0.055 ± 0.051.
The figure for KYICAICGDRSSGKHYGVYSCEGCKGFFKRTVRKDLTYTCRDNKDCLIDKRQRNRCQYCRYQKCLAMGMKREAVQEE is -0.008 ± 0.067; for KQICAICGDRSSGKHYGVYSCEGCKGFFKRTVRKDLTYTCRDNKDCLIDKRQRNRCQYCRYQKCLAMGMKREAVQEE it is -0.031 ± 0.043; for KSICAICGDRSSGKHYGVYSCEGCKGFFKRTVRKDLTYTCRDNKDCLIDKRQRNRCQYCRYQKCLAMGMKREAVQEE it is 0.011 ± 0.043.
KLICAICGDRSSGKHYGVYSCEGCKGFFKRTVRKDLTYTCRDNKDCLIDKRQRNRCQYCRYQKCLAMGMKREAVQEE: the abundance fitness is -0.041 ± 0.037.
The figure for KKICAICGDRSSGKHYGVYSCEGCKGFFKRTVRKDLTYTCRDNKDCLIDKRQRNRCQYCRYQKCLAMGMKREAVQEE is 0.096 ± 0.047.
With KIICAICGDRSSGKHYGVYSCEGCKGFFKRTVRKDLTYTCRDNKDCLIDKRQRNRCQYCRYQKCLAMGMKREAVQEE, the abundance fitness came to 0.189 ± 0.085.
Take KNICAICGDRSSGKHYGVYSCEGCKGFFKRTVRKDLTYTCRDNKDCLIDKRQRNRCQYCRYQKCLAMGMKREAVQEE: the abundance fitness is -0.001 ± 0.062.
With KRICAICGDRSSGKHYGVYSCEGCKGFFKRTVRKDLTYTCRDNKDCLIDKRQRNRCQYCRYQKCLAMGMKREAVQEE, the abundance fitness is -0.101 ± 0.032.
For KCICAICGDRSSGKHYGVYSCEGCKGFFKRTVRKDLTYTCRDNKDCLIDKRQRNRCQYCRYQKCLAMGMKREAVQEE, the abundance fitness was -0.267 ± 0.071.
Regarding KHWCAICGDRSSGKHYGVYSCEGCKGFFKRTVRKDLTYTCRDNKDCLIDKRQRNRCQYCRYQKCLAMGMKREAVQEE, the abundance fitness was -0.404 ± 0.071.
The figure for KHECAICGDRSSGKHYGVYSCEGCKGFFKRTVRKDLTYTCRDNKDCLIDKRQRNRCQYCRYQKCLAMGMKREAVQEE is -0.428 ± 0.066; for KHTCAICGDRSSGKHYGVYSCEGCKGFFKRTVRKDLTYTCRDNKDCLIDKRQRNRCQYCRYQKCLAMGMKREAVQEE it is -0.008 ± 0.031.
The figure for KHHCAICGDRSSGKHYGVYSCEGCKGFFKRTVRKDLTYTCRDNKDCLIDKRQRNRCQYCRYQKCLAMGMKREAVQEE is 0.017 ± 0.031.
In the case of KHQCAICGDRSSGKHYGVYSCEGCKGFFKRTVRKDLTYTCRDNKDCLIDKRQRNRCQYCRYQKCLAMGMKREAVQEE, the abundance fitness is -0.211 ± 0.045.
The figure for KHGCAICGDRSSGKHYGVYSCEGCKGFFKRTVRKDLTYTCRDNKDCLIDKRQRNRCQYCRYQKCLAMGMKREAVQEE is -0.28 ± 0.043.
